Patent US20240325549A1 (HANGZHOU ZHONGMEIHUADONG PHARMACEUTICAL, published 2024)

T1: human GIP receptor (human, UniProt P48546 22-466)
T1 construct: whole, on cells; Functional assays: HEK293/GIPR cells and transiently transfected CHO-K1 cells; also called hGIPR
T1 sequence (looked up): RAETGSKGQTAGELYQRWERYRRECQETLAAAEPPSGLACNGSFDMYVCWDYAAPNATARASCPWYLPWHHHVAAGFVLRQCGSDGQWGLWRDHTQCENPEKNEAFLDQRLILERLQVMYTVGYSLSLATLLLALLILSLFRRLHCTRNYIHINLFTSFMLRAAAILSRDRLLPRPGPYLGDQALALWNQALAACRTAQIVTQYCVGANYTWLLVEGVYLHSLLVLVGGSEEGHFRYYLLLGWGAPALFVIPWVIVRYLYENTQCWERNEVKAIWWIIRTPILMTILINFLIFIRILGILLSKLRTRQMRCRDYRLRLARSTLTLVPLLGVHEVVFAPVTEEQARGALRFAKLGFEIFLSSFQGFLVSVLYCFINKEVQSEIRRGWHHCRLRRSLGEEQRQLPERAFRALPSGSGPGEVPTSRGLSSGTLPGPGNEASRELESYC

B1: P008 (peptide)
peptide: YXEGTXTSDYXIXLDKQAQAEFVKWLLKGGPSSGAPPPSK
modifications: Aib at 2, αMePhe at 6, Aib at 11, Aib at 13; K at position 28 conjugated at the ε-amino with ([2-(2-amino-ethoxy)-ethoxy]-acetyl)2-(γ-Glu)1-CO-(CH2)16-CO2H; C-terminal primary amide
B2: P007 (peptide)
peptide: YXEGTXTSDYXIXLDKQAQAEFVKWLLKGGPSSGAPPPSK
modifications: Aib at 2, αMePhe at 6, Aib at 11, Aib at 13; K at position 24 conjugated at the ε-amino with ([2-(2-amino-ethoxy)-ethoxy]-acetyl)2-(γ-Glu)1-CO-(CH2)16-CO2H; C-terminal primary amide
B3: P013 (peptide)
peptide: YXEGTXTSDYXIXLDKQAQAEFVKWLLKGGPSSGAPPPSK
modifications: Aib at 2, αMePhe at 6, Aib at 11, Aib at 13; K at position 24 conjugated at the ε-amino with ([2-(2-amino-ethoxy)-ethoxy]-acetyl)2-(γ-Glu)1-CO-(CH2)18-CO2H; C-terminal primary amide

Assays:
human GIP receptor [1] = molecular target: T1, human GIP receptor; assay: radioligand competition: displacement of [125I]GIP from membranes of cells over-expressing human GIPR; ratio = Ki of GIP / Ki of compound
Protocol: 98 μL of membrane dissolved in binding buffer (50 mM HEPES pH 7.4, 5 mM MgCl₂, 1 mM CaCl₂, 0.1% BSA, 0.005% Tween-20) is transferred to a 96-well test plate (15 μg/well). The compound is serially diluted in DMSO, and then, 2 μL of the diluted compounds or 100% DMSO is added to the test plate containing the membrane solution. […] The test plate is left at room temperature for 90 minutes. […] After drying at 37° C. for 2 hours, 50 μL of scintillation fluid is added to each well. The plate is read with a MicroBeta2 scintillation counter after sealing and settling for at least 1 hour so as to determine the membrane bound radioligand level.

human GLP-1 receptor [2] = molecular target: T2, human GLP-1 receptor (human, UniProt P43220 24-463); assay: radioligand competition: displacement of [125I]GLP-1 from membranes of cells over-expressing human GLP-1R; ratio = Ki of GLP-1 / Ki of compound
T2 construct: whole, on cells; Functional assays: HEK293/CRE/GLP-1R cells, human GLP-1R-HEK cells and transiently transfected CHO-K1 cells; also called hGLP-1R
Protocol: 89 μL of membrane dissolved in binding buffer (50 mM Hepes, pH 7.4, 5 mM MgCl₂, 5 mM EDTA, 0.005% TWEEN, 0.005% HSA) is transferred to a 96-well test plate (5 μg/well). The compound is serially diluted in DMSO, and then, 1 μL of the diluted compound or 100% DMSO is added to the test plate containing the membrane solution. 10 μL of [¹²⁵I] […] The test plate is left at room temperature for 90 minutes. The membrane complexes are harvested into a GF/B plate pre-coated with 0.5% PEI by using a Cell Harvester, and washed for 3 times with 500 μL of pre-cooled elution buffer (50 mM Hepes, pH 7.4, 500 mM NaCl) at 4° C. After drying at 37° C. for 2 hours, 50 μL of scintillation fluid is added to each well. The plate is read with a MicroBeta2 scintillation counter after sealing and settling for at least 1 hour so as to determine the membrane bound radioligand level.

human GIP receptor [3] = molecular target: T1, human GIP receptor; assay: cell-based or functional assay
human GLP-1 receptor [4] = molecular target: T2, human GLP-1 receptor; assay: cell-based or functional assay

Binder | Ki ratio (human GIP receptor [1]) [ratio] | Ki ratio (human GLP-1 receptor [2]) [ratio] | EC50 value (ratio of the EC50 of the endogenous ligand GIP to the EC50 of the test compound), LANCE Ultra cAMP assay in HEK293/GIPR cells (human GIP receptor [3]) [ratio] | EC50 value (ratio of the EC50 of the endogenous ligand GLP-1 to the EC50 of the test compound), cAMP reporter gene (luciferase) assay in HEK293/CRE/GLP-1R cells (human GLP-1 receptor [4]) [ratio]
YXEGTXTSDYXIXLDKQAQAEFVKWLLKGGPSSGAPPPSK (Aib at 2, αMePhe at 6, Aib at 11, Aib at 13; C-terminal primary amide) [P001] | 8.82 | 19.5 | 7.13 | 52.1
B1 | 0.16 | 1.09 | 1.67 | 4.79
B2 | – | 0.47 | 1.15 | 5.84
B3 | 0.14 | 0.28 | 0.86 | 2.41
